Assay results: PMC7567440 (2020)

Target: recombinant flagellin of Bacillus cereus HN001 (WR52_08290) (Bacillus cereus HN001)
Experiment: BLI

B1: pigeon ovomucoid (natural protein)
chain: VEVDCSRYHNTTNVEGREGLPCTKDFNPICGSDGVTYDNECLLCSYNREYGTNVSKDHDGQCREVIPVDCSKYPNVTNEEGRVALFCTENLRLVCGADGVTYDNECLLCARSLERGTRAGKKYDGECRREITTVDCSDHPQHACTLNYLPVCGSDSRTYSNRCNFCNAVVHSNGTLTLNYFGEC
modifications: terminal Galα1-4Gal residues; biotin (biotinylated POVO in the BLI assay)
koff: 0.000376 s⁻¹
